Measured values taken from patent publication US20250223369A1 (WISTAR INSTITUTE OF ANATOMY AND BIOLOGY, published 2025).

Tests used:
human Siglec 7 on cells [1] = biological target: T1, human Siglec 7 on cells (human, UniProt Q9Y286 19-467); test: cell-based or functional assay
[2] = biological target: T2, recombinant human Siglec-7 protein (human, UniProt Q9Y286 19-353, limits assumed); test: SPR, DB7.2 and recombinant human Siglec-7 protein
Siglec 9 on 293T cells = biological target: T3, Siglec 9 on 293T cells (UniProt Q9Y336 18-463, limits assumed); test: flow cytometry on Siglec 9 overexpressing HEK293T cells
T3 construct: whole, on cells
Excerpt: BD LSRII flow cytometer was used for staining of cells. BD FACS Aria cell sorter (BD Biosciences) was used for the sorting of Siglec 7/FSHR stably expressing cells. Anti-human antibodies used were directly fluorochrome conjugated. […] For the non-conjugated primary antibodies, PE-secondary anti-human (H+L) (Invitrogen), PE/AF647—secondary anti-human F(ab′)₂ (Jackson ImmunoResearch Laboratories Inc) and APC—secondary anti-mouse IgG (Poly4053, BioLegend) were used. Live/Dead Violet viability kit (Invitrogen) was used to exclude dead cells from analysis.
Three mAbs targeting Siglec 7 were sequenced and studied in more detail. […] (FIG. 10B). […] Cells were labeled with DAPI (nuclei), GFP (Siglec 7) and Texas Red (Anti-Siglec 7).

[3] = biological target: T2, recombinant human Siglec-7 protein; test: SPR, titration of anti-Siglec-7 on recombinant human Siglec-7 protein
human Siglec 7 on cells [4] = biological target: T1, human Siglec 7 on cells; test: flow cytometry of human NK cells with sera of DMAb-electroporated mice, anti-human IgG

T1 sequence (Q9Y286 19-467): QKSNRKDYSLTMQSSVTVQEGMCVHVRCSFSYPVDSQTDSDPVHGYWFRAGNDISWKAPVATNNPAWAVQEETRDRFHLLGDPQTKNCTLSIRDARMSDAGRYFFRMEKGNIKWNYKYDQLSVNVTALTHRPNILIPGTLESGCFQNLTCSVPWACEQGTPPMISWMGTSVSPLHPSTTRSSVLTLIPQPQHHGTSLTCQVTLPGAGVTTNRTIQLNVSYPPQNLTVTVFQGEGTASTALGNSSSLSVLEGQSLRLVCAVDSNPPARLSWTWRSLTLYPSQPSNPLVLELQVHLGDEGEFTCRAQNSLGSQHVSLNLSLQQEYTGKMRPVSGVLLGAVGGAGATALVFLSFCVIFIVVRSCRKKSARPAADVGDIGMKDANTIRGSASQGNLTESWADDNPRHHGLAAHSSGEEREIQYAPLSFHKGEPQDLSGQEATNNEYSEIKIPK
T2 sequence (Q9Y286 19-353 limits assumed): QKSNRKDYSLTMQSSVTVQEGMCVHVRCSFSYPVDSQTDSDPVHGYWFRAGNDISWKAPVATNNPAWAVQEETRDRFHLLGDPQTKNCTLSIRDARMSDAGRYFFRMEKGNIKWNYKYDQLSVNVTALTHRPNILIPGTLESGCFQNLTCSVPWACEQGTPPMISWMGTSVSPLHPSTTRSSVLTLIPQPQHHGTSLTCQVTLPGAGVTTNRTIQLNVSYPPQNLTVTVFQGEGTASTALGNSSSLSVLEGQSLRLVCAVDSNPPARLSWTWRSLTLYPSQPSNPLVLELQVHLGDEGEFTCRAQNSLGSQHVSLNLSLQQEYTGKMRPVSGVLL
T3 sequence (Q9Y336 18-463 limits assumed): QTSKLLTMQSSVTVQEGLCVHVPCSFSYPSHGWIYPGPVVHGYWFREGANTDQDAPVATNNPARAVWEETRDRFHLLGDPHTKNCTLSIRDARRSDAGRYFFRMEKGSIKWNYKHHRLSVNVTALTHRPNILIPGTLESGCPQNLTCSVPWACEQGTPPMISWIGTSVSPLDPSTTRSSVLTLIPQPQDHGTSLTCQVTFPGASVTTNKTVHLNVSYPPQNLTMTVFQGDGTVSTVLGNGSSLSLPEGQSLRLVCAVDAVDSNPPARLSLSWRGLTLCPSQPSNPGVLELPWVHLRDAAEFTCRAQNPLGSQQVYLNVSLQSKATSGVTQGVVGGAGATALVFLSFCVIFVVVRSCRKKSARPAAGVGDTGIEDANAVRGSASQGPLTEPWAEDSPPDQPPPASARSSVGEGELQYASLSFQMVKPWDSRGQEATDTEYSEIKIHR

B1: DB-S7-2 anti-Siglec 7 antibody (antibody, V domains shown)
VH: QVQLVESGGGVVQPGRSLRLSCAASGFTFRTDAMHWVRQAPGKGLEWVAVIWYDGSIKYHADSVKGRFTISRDNSKNTLYLEMNSLRAEDTAVYYCARDRSNSLDHWGQGILVSVSS
VL: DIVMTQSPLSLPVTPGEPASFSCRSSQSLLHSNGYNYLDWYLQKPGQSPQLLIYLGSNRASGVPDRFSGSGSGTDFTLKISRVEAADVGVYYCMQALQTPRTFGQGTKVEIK
notes: Raised in H2L2 mice (hybridoma clone in the first screens), then expressed as human IgG1 HC and LC from pVax1 in Expi293F cells or in mice (DMAb); also called DB7.2; DB-S7-2 DMAb
- killing of OVISE cells with human PBMCs (cell index vs dose), IC50 (human Siglec 7 on cells [1]): 82.7 nM
- killing of PEO4 cells with human PBMCs (xCELLigence), EC50 (human Siglec 7 on cells [1]): 68.9 nM
- koff [2]: 3.6e-05 s⁻¹
- kon [2]: 830000 M⁻¹ s⁻¹
- t1/2 [2]: 5.33 h
- binding result (Siglec 9 on 293T cells): no binding
- Kd [3]: 0.044 nM

B2: DB7.2_TM Mod (antibody, V domains shown)
VH: B1 VH
VL: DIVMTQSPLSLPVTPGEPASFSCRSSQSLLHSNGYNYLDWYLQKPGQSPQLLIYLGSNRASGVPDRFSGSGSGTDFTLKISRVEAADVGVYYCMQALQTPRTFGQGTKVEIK
- killing of OVISE cells with human PBMCs (cell index vs dose), IC50 (human Siglec 7 on cells [1]): 192 nM

B3: DB-S7-1 anti-Siglec 7 antibody (antibody, V domains shown)
VH: B1 VH
VL: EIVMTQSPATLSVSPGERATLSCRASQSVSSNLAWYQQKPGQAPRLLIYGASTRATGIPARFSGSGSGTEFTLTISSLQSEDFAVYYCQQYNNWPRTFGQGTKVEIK
notes: Raised in H2L2 mice (hybridoma clone in the first screens), then expressed as human IgG1 HC and LC from pVax1 in Expi293F cells or in mice (DMAb); also called DB7.1; DB-S7-1 DMAb
- binding result (Siglec 9 on 293T cells): no binding
- binding result (human Siglec 7 on cells [4]): binds

B4: DB-S7-7 anti-Siglec 7 antibody (antibody, V domains shown)
VH: B1 VH
VL: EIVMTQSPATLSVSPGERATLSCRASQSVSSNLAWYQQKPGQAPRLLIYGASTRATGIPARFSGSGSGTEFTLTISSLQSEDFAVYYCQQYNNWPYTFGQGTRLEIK
notes: Raised in H2L2 mice (hybridoma clone in the first screens), then expressed as human IgG1 HC and LC from pVax1 in Expi293F cells or in mice (DMAb); also called DB7.7; DB-S7-7 DMAb
- binding result (Siglec 9 on 293T cells): no binding
